Reference: the nanobody polyreactivity screen of Harvey et al. (2022)

Assay: yeast display, Sf9 membrane polyspecificity reagent, FACS + sequencing; frameworks hold sequencing errors
Procedure, shortened: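 Nanobodies from a synthetic yeast display library (Saccharomyces cerevisiae BJ5465), induced 36–48 hours with galactose, were stained 1 hour at 4 °C with 10% biotinylated, detergent-solubilized Sf9 membrane reagent, enriched on streptavidin microbeads, then FACS-sorted. Anti-HA (expression) and streptavidin (reagent binding) fluorescence set low and high (top ~1%) gates. Polyreactivity labels come from the gate of origin. Genes were colony-PCR amplified, MiSeq 2 × 250 sequenced and filtered by CDR length.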

Sequence | polyreactivity (PSR sort gate)
QVQHVESGRGLVQAGGSLRLSCAASGIIFLYYAMGWYREAPGKVRELVAAITGSGGTTYYADSVKGRFTISRDNAMNTVYLQMNSLKPEDTAVYYCATPPPEVWQRWYREYDYWGQGTQVTVSS | low polyreactivity
QVQHVESGRGLVQAGGSLRLSCPASGSTFSYYAMGWYRQAPGKERELVASISSTTGSTYYADSVKGRFTISRDNAKNTVYVKMNSVKPEDTAVYYCAADIPPGGGDYWGQGSQVTVSS | low polyreactivity
QVQHVESGRGLVQAGRSLRLSCAASGRIFQRYAMGWYRQAPGKERELVAVITKRGGNTYYADSVKGRFTISRDNAKNTVYLQMNSLKPEDTAVYYCASRSGRSTGDYWGQGTQVTVSS | high polyreactivity
QVQHVESGVGLVQAGGSLRLSCAASGSIFVHNAMGWYRQAPGKERELVAGISARAASTYYADSVKGRFTISRDNAKNTVYLQMNSLKPEDTAVYYCAADRIPGYRVYGFYYWGQGTQVTVSS | low polyreactivity
QVQHVESRGGLVQAGGSLRLSCAASGFTFYTNVMGWSRQAPGKERELVAAINSGGSTNYADSVKGRFTISRDNAKNTVYLQMNSLKAEDTAVYYCNKRGTEIGYDYWGQGTQVTVSS | low polyreactivity
QVQHVESRGGLVQAGGSLRLSCAASGSTFCRYAMGWYRKAPGKEREFVARITYSSGRTYYADSVKGRFTISRDNAKNTVYLQMNSLKPDDTAVYYCAAGDYTRGPCGDYWGQGTQVTVSS | high polyreactivity
QVQHVESRGGLVQSGGSLRLSCAASGSIFSYYDLGWYRQAPGKERELVASISSGGSTYYADSVKGRFTISRDNAKNTVYLQMNSLKPEDTAVYYCAAVSRWLYWEDDYWGQGTQVTVSS | low polyreactivity
QVQHVESVGGIVQAGGSLRLICAASGFIFVGYAMGWYRQAPGKERELVAAISTSGGRTYYADSVKGRFTISRDNAKNTVYLQLNSLKPEDTAVYYCAAKRPGCIQYSYYYWGQGTQVTVSS | high polyreactivity
QVQHVESVGGLVQAGGSLRLSCAASASIIYANTMGWYRQAPGKEREFVATITDSGAIKYYADSVKGRFTISRDNAKNTVYLQMNSLKPEDTAVYYCNADSIYSARGWLYGYWGQGTQVTVSS | low polyreactivity
QVQHVQSGGGLVQAGGSLRLSCAASGSTFPGYAMGWYRQDPGKEREFVAAISTSGGRTYYADSVKGRFTISRDNAKNTVYVQMNSLKPEDTAVYFCNADRYSQYSHSRYDYWGQGTQVTVSS | high polyreactivity
QVQIEESGGGLVQAGGSHRLSCAASGRTFGGNAMGRYRQAPRKERELVAAISISGGSNTYYADSVKGRFTISRDTGKNTVYLQMNSLKPEDTAVYFCAARSTVYISSDYWGQGTQVTVSS | low polyreactivity
QVQIEESGGGLVQAGGSLRLICAASGIIIMDYDMGWSRQAPGKERELVAAISRSGGSTYYADSVKGRFKISRDNAKNSVYLQMNSLKPEDTAVYYCNADNVDYPSAPLNPGKGIYYWGQGTQVTVSS | low polyreactivity
QVQIEESGGGLVQAGGSLRLSCAASASIFYPNAMGWYRQAPVKEREFVAAITRNGDSTYYADSVKGRFTISRDNAKNTVYLQMNSLKPEDTAVYYCNTDGQGIYSYNKDLSWISGYDYWGQGTQVTVSS | low polyreactivity
QVQIEESGGGLVQAGGSLRLSCAASGITFYWYARGWYRQAPVTERELVAAITRSGSSTYYADSVKGRFTISRDNAKNTVYLQMYSLKPEDTAVDYCAALPYKPYYDAYDYWGQGTQVTVSS | high polyreactivity
QVQIEESGGGLVQAGGSLRLSCAASGRIFARNALGWYRQSPGTEREFVAAITHSGGNTYYADSVKGRFTISRDNAKNSVYLQMNSLKPEDTAVYYCAKDYRSTKYDYWGQGTQVTVSS | low polyreactivity
QVQIGESGGGLVQAGGSLRLSCAASGSIIVGYAMGWYRQAPGKEREVVAAISKRGTSTYYADSVKGRFTISRDNAKNTVYLQMNSLKPEETAVYDCNALDLVNHGWTERLDQDYYYWGQGTQVTVSS | high polyreactivity
QVQIGESGGGLVQAGGSRRLSCAASGLTFYLYAMGWYRQAPGKERELVAAITTSGGSTYYADSVKGRFTISRDNAKNTVYLQMNSLKPEDTAVYDCATQGAIRGYGYWGQGTQVTVSS | high polyreactivity
QVQIGQSGGGLVQAGGSLRLSCAASGRIIWSNAMGWNRQAPGKERELVAAIRNTGSTNYADSVKGRFTISRDNAKNTVYLQMNSLKPEDTEVYYCAADRATYCTYAYGYWGQGTQVTVSS | high polyreactivity
QVQILESGGGLVQAGGSLRLSCAASGRIFGGYAMGWYRQAPGKERELVAAIRWRGGRTYYADSVKGRFTISRDNAKNTVYLQMNSLKPEDTAVYYCAADYSFTGHRYTYGYWGQGTQVTVSS | high polyreactivity
QVQILESGVGLVQPGGSLRLICAASGITLQFYALGWYRKATGKEAELVAAISISGGRTYYADSVKGRFTISRDNAKNTFYLQMNSLKPEDTAVYYCAAYLQRAYRYGYWGQGTQVTVSS | high polyreactivity
QVQILETGGGLVQAGGSLSLSCAASGSIFYSNAMGWYRQAPGKESEIVAAISAGGGSTYYADSVKGRFTISRDNAINTVYLQMNSLKPEDTAVYYCAAQPYKIIYPYDYWGQGTQVTVSS | low polyreactivity
QVQIVDSGGGLVQAGGSLRLSCAASGRTFNYYAKGWYRQAPGKERQLVAAISKSGGSTYYADSVKGRFTISRDNEKNTVYLQMNSLKPEETAVYYCAALTTHAPHSYNYWGQGTQVTVSS | low polyreactivity

Sequence | polyreactivity (PSR sort gate)
QVQIVESGAGLVQAGGSLRLSCAPSGRIFVTNAMGWYRQSPGKERELGAAITSGGSTYYADSVKGRFTISRDNAKNNVYLQMNSLKPEDTAVFYCARPVFSQRYVTTRYDYWGQGTQVTVSS | low polyreactivity
QVQIVESGARLVQAGGSLRLSCAASGRTFYAYAMGWYTQAPGKDREYFASIRLRGGSTYYADSVKGRFTISRDNAKNTVYLQMHSLKPEDTAVYYGNAFYGGSSSYWYYSWGQGTQVTVSS | high polyreactivity
QVQIVESGGGIVQAGGSLRLSCAASGFIFVFNAMGWNRKAPGKERELVAAINGGDNTNYADSVKGRFTISRDNAKNTVYLQINSLKPEDTAVYYCAAEGEDSMWTGYDYDYWGQGTQVTVSS | low polyreactivity
QVQIVESGGGIVQAGGSLRLSCAASGRTLQTYVMGWYRQSPGKEREWVAAITRGGGSTYYADSVKGRFTISRDNAKNTVYLQMNSLKPEDTAVYYCAASALRFNSSFSHWYNYWGQGTQVTVSS | high polyreactivity
QVQIVESGGGIVQAGVSLRLICAASGFTFIDNTMGWYRQAPGKERELVAAISSDGRTNYADSVKGRFTISRDNAKNNVYLQKNSLKPEYTAVYYCASEDYYWYVTGDLYHTAVYYWGQGTQVTVSS | low polyreactivity
QVQIVESGGGLFQAGGSLRLSCAASGRIFDPYSMGWYRQAPGKERELVASISWSGGRTYYADSVKGRFTISRDNAKNTVYLQMNSLKPEDTAVYYCARRFYKGTSKTNLFDFWGQVTQVTVSS | high polyreactivity
QVQIVESGGGLLQAGGSLRLSCAASGRIFRRNAMGWYRQATGKERELVAAISKSGGSTYYADSVKGRFTISRDNAKNTVYLQMNSLKPEDTAVYYCAAEYSDRYDYWGQGTQVTVSS | high polyreactivity
QVQIVESGGGLVDAGGSLRLSCAASGRTFPPYAMGWYRQAPGKERELVAAISGSGASTYYADSVKGRFTISRDNAKNTVKLQWISQKPEDTAVYSWARYRGYWGRYYGVHYGYWGQGTQVTVSS | high polyreactivity
QVQIVESGGGLVQAAGSLRLSCPASGRIFSDYAMGWYRQAPGKERELVAVITRGGDNTHYADSVKGRFTISRDNAKNTVYFQMNSLKPEDTAVYYCAAGFVYFRLRRYFWRDYWGQGTQVTVSS | low polyreactivity
QVQIVESGGGLVQAGASLRLSCAASGLIFPQKVMGWYIQAPGNERVLVAAISSGTITNYADSVKGRFTISRDNAKNSVYLQMNSLKPEDTADYFCAAEEDKKTFDYWGQGTQVTVSS | low polyreactivity
QVQIVESGGGLVQAGATLRLSCDASGITIEGYAMGWYRQAPGKERELVAAIRSSGTSTYYADSVKGRFTITRDFAKNTVYLQMNSLKPEDTAVYYCNRARSSSRYDYWGQGTQVTVSS | low polyreactivity
QVQIVESGGGLVQAGCSLRISCAASGRTFYRYAMGWYRQAPGKEREFVAAISWRGGSTRYADSVKGRFTISRDNAKNTVYLQLNSLKPEVTAVYYCNADPQRSVSYTDQYRPVWYGYWGQGTQVTVSS | high polyreactivity
QVQIVESGGGLVQAGGILRLSCAASGNTFGYYAMGWYRQAPGKEWELVAAISRGGGSTYYADSVKGRFTISRDNAKNTVYLQMNRLKPEDTAVYYCARRYRLSTSWSYRVGYWGQGTQVTVSS | high polyreactivity
QVQIVESGGGLVQAGGSLRFSCADSGFTFYSYAIVWYRQAPGKERELVAAISWSGGSTYYADSVKGRFTISRDNAKNTVYLQMNSLKPEDTAVYFCNAPYIGEHYYWGQGTQVTVSS | high polyreactivity
QVQIVESGGGLVQAGGSLRISCAASGLIYSSYGMGWYRQAPGKERELVAAISSGGSTYYADSVKGRFSISRDNAKNTVYLQKKSLKPEDTAVYYCADGVLYPYWYSTYYPDCQYYYWGHGTQVTVSS | low polyreactivity
QVQIVESGGGLVQAGGSLRISCAASGRTFSWNPMGWYRQAPGKERELVAGITGRGRSTYYADSVKGRFTISRDNAKLTVYLQMNSLTPEDTAVYYCAADSYRSSSPYGYWGQGTQVTVSS | high polyreactivity
QVQIVESGGGLVQAGGSLRISCSASGRTLRSYAMGWYRHAPGKERELVAAISRSGGSTNYADSVKGRFTISHDNAKNTVYLQMNSLKPEETAVYYCNTYSTSWKMDYWGQGTKVTVSS | high polyreactivity
QVQIVESGGGLVQAGGSLRLSCAASGFIFGANAMGWYRQAPGKEREFVAAISSSGGRYELRRSVKGRFTISRDKAKNTVYLQMNSLKPEDTAVYYCATPYPTGRPRHYYWGQGTQVTVSS | high polyreactivity
QVQIVESGGGLVQAGGSLRLSCAASGFTIPRYAMGWYRQAPGKERELVAAISRAGRTYYADSVKGRFTISRDNAKNTVYLLMTSLKPEDTAVYYCNSQYLKPGDYWGHGTQVTVSS | high polyreactivity
QVQIVESGGGLVQAGGSLRLSCAASGFTSQFYAMGWYRQAPGKEMELVAAISSGSSTYYADSVKGRFTSSRDNAKNTVYLQMNSLKPEDTAVYYCATTHKTLRRYDSWGQGTKVTVSS | low polyreactivity
QVQIVESGGGLVQAGGSLRLSCAASGIIFYRYAMGWSRQAPGKERELVAAITWSGVSTSYADSVKGRFTISRDNAKNTVYLQMNSLKPEVTAVYDCNKDPGTLYGDMDSWGQGTQVSVSS | low polyreactivity
